Experimental data published in patent US20140348805A1.

Target: HLA-A2 (HLA-A*0201) presenting tyrosinase369-377 peptide … on cells (human)
Assay: cell-based or functional assay

Substance	IFN-γ secretion after co-culture with Mel-93.04A12 (HLA-A2+tyrosinase+) [pg/mL]	peptide concentration needed for 50% relative lysis (half-maximum lysis), 51Cr-release assay, peptide-pulsed T2 cells [pM]	specific lysis of melanoma cells, 51Cr-release assay [%]	amount of peptide presented by T2 cells to cause release of 2000 pg/ml interferon-gamma, fold lower than TCR-D115 [fold]	maximum level of interferon-gamma in 24 hours (T2 cells pulsed with YMD peptide) [pg/mL]	peptide amount at first detection of cytokine secretion, fold less than TCR-D115 (PBMC pulsed with YMD peptide) [fold]	peptide concentration for 50% of maximal interferon-gamma release, fold lower than TCR-D115 (T2 cells pulsed with YMD peptide) [fold]
TCR of T cell clone T58 (TCR-T58), human constant regions (from UniProt P01848 1-140)	1230	600	76				
TCR-T58 with murine constant regions (TCRbeta-P2A-TCRalpha, codon-optimized) (from UniProt P01849 1-136)				15000	5000	1000	100
